T1: His6-SAV576 (TetR family regulator) (Streptomyces avermitilis ATCC31267, UniProt Q82QD4 1-218)
T1 sequence: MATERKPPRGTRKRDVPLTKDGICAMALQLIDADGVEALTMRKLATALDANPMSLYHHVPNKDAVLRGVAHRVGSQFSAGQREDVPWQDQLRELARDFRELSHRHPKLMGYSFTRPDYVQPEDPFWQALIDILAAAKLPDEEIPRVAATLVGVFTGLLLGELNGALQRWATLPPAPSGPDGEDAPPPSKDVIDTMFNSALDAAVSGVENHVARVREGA

B1: probe 2m (dsDNA)
DNA 1: CCCAGGTCTGCCGATTGAGTTTCGAATTCTAAGCTTGTACTAC
DNA 2: GTAGTACAAGCTTAGAATTCGAAACTCAATCGGCAGACCTGGG
B2: probe 6 (dsDNA)
DNA 1: AGTCGCCATACGCTGTACGGTACCAGCGCCCGCGGCACTGCGG
DNA 2: CCGCAGTGCCGCGGGCGCTGGTACCGTACAGCGTATGGCGACT
B3: probe 1m (dsDNA)
DNA 1: TGAAGCGAATTCGAAGCTTGAAACGGGGCGCTGCCGTACCGGC
DNA 2: GCCGGTACGGCAGCGCCCCGTTTCAAGCTTCGAATTCGCTTCA
B4: probe 2 (dsDNA)
DNA 1: CCCAGGTCTGCCGATTGAGTTTCCATACGTCGTATGGTACTAC
DNA 2: GTAGTACCATACGACGTATGGAAACTCAATCGGCAGACCTGGG
B5: probe 6m (dsDNA)
DNA 1: AGTCGCGAATTCCAAGCTTGTACCAGCGCCCGCGGCACTGCGG
DNA 2: CCGCAGTGCCGCGGGCGCTGGTACAAGCTTGGAATTCGCGACT

Biological target: T1, His6-SAV576 (TetR family regulator)
Test: EMSA; EMSA: Roche DIG Gel Shift Kit binding buffer (composition not stated), 0.3 nM probe, 1 µg poly[d(I-C)] in 20 µl, 25°C 30 min, 5% PAGE 0.5x TBE; footprinting: 400 ng DNA in 50 µl, 25°C 30 min, DNase I at 37°C
Conditions: protein: recombinant; tags: His6 (pET-28a); chain copies: 2; label: 3' DIG; blunt

Binder | binding result
B1 | no binding
B2 | binds
B3 | no binding
B4 | binds
B5 | no binding

Source: paper PMC3742746, “A Novel TetR Family Transcriptional Regulator, SAV576, Negatively Controls Avermectin Biosynthesis in Streptomyces avermitilis”
